From US7413870B2, “SAK: modulation of cellular proliferation for treatment of cancer” (Rigel Pharmaceuticals, Incorporated, priority 2001, dated 2008)
Substitutions are numbered along the chain they refer to. Names and notes keep the numbering of the source. Read-outs that look alike come from different tables or passages of the source.

B1: SAK wild type: wild type human SAK serine/threonine kinase (SEQ ID NO:2), overexpressed in cells (protein, UniProt O00444 1-970, looked up)
Serine/threonine-protein …: MATCIGEKIEDFKVGNLLGKGSFAGVYRAESIHTGLEVAIKMIDKKAMYKAGMVQRVQNEVKIHCQLKHPSILELYNYFEDSNYVYLVLEMCHNGEMNRYLKNRVKPFSENEARHFMHQIITGMLYLHSHGILHRDLTLSNLLLTRNMNIKIADFGLATQLKMPHEKHYTLCGTPNYISPEIATRSAHGLESDVWSLGCMFYTLLIGRPPFDTDTVKNTLNKVVLADYEMPSFLSIEAKDLIHQLLRRNPADRLSLSSVLDHPFMSRNSSTKSKDLGTVEDSIDSGHATISTAITASSSTSISGSLFDKRRLLIGQPLPNKMTVFPKNKSSTDFSSSGDGNSFYTQWGNQETSNSGRGRVIQDAEERPHSRYLRRAYSSDRSGTSNSQSQAKTYTMERCHSAEMLSVSKRSGGGENEERYSPTDNNANIFNFFKEKTSSSSGSFERPDNNQALSNHLCPGKTPFPFADPTPQTETVQQWFGNLQINAHLRKTTEYDSISPNRDFQGHPDLQKDTSKNAWTDTKVKKNSDASDNAHSVKQQNTMKYMTALHSKPEIIQQECVFGSDPLSEQSKTRGMEPPWGYQNRTLRSITSPLVAHRLKPIRQKTKKAVVSILDSEEVCVELVKEYASQEYVKEVLQISSDGNTITIYYPNGGRGFPLADRPPSPTDNISRYSFDNLPEKYWRKYQYASRFVQLVRSKSPKITYFTRYAKCILMENSPGADFEVWFYDGVKIHKTEDFIQVIEKTGKSYTLKSESEVNSLKEEIKMYMDHANEGHRICLALESIISEEERKTRSAPFFPIIIGRKPGSTSSPKALSPPPSVDSNYPTRERASFNRMVMHSAASPTQAPILNPSMVTNEGLGLTTTASGTDISSNSLKDCLPKSAQLLKSVFVKNVGWATQLTSGAVWVQFNDGSQLVVQAGVSSISYTSPNGQTTRYGENEKLPDYIKQKLQCLSSILLMFSNPTPNFH
B2: SAK K41M mutant: mutant SAK (K41M) serine/threonine kinase, overexpressed in cells in dominant negative studies (protein, UniProt O00444 1-970, looked up, variant K41M)
Serine/threonine-protein …: B1 Serine/threonine-protein … with K41M
B3: wild type mouse SAK: wild type mouse SAK overexpressed in CHO cells, from cited U.S. patents (protein, UniProt Q64702 1-925, looked up)
Serine/threonine-protein …: MAACIGERIEDFKVGNLLGKGSFAGVYRAESIHTGLEVAIKMIDKKAMYKAGMVQRVQNEVKIHCQLKHPSVLELYNYFEDNNYVYLVLEMCHNGEMNRYLKNRMKPFSEREARHFMHQIITGMLYLHSHGILHRDLTLSNILLTRNMNIKIADFGLATQLNMPHEKHYTLCGTPNYISPEIATRSAHGLESDIWSLGCMFYTLLIGRPPFDTDTVKNTLNKVVLADYEMPAFLSREAQDLIHQLLRRNPADRLSLSSVLDHPFMSRNPSPKSKDVGTVEDSMDSGHATLSTTITASSGTSLSGSLLDRRLLVGQPLPNKITVFQKNKNSSDFSSGDGSNFCTQWGNPEQEANSRGRGRVIEDAEERPHSRYLRRAHSSDRASPSNQSRAKTYSVERCHSVEMLSKPRRSLDENQHSSNHHCLGKTPFPFADQTPQMEMVQQWFGNLQMNAHLGETNEHHTVSPNRDFQDYPDLQDTLRNAWTDTRASKNADTSANVHAVKQLSAMKYMSAHHHKPEVMPQEPGLHPHSEQSKNRSMESTLGYQKPTLRSITSPLIAHRLKPIRQKTKKAVVSILDSEEVCVELLRECASEGYVKEVLQISSDGTMITVYYPNDGRGFPLADRPPLPTDNISRYSFDNLPEKYWRKYQYASRFIQLVRSKTPKITYFTRYAKCILMENSPGADFEVWFYDGAKIHKTENLIHIIEKTGISYNLKNENEVTSLKEEVKVYMDHANEGHRICLSLESVISEEEKRSRGSSFFPIIVGRKPGNTSSPKALSAPPVDPSCCKGEQASASRLSVNSAAFPTQSPGLSPSTVTVEGLGHTATATGTGVSSSLPKSAQLLKSVFVKNVGWATQLTSGAVWVQFNDGSQLVVQAGVSSISYTSPDGQTTRYGENEKLPEYIKQKLQCLSSILLMFSNPTPNFQ

Tests used:
normal cells = assay: antiproliferative effect of SAK wild type/mutants in normal cells (GFP positivity, cell tracker); type: cell-based
H1299 cells = assay: antiproliferative effect of SAK mutant in H1299 cells; type: cell-based
CHO cells = settings: overexpression in CHO cells; cited from earlier work

| Molecule | antiproliferative activity (normal cells) | antiproliferative effect (normal cells; GFP positivity studies) | antiproliferative activity (normal cells; listed as wild type SAK) | antiproliferative effect (H1299 cells) | antiproliferative effect (CHO cells) |
| --- | --- | --- | --- | --- | --- |
| B1 | do not have significant antiproliferative activity | no antiproliferative effect | neither wild type nor mutant SAK is antiproliferative |  |  |
| B2 | does not have strong antiproliferative effects |  |  | weak antiproliferative effect |  |
| B3 |  |  |  |  | antiproliferative |
